Target: recombinant mature rat IL-33 with N-terminal His-tag (rat) (UniProt Q66H70)
Test: cell-based or functional assay

Chain of recombinant mature rat IL-33 with N-terminal His-tag (rat) (Q66H70 109-264): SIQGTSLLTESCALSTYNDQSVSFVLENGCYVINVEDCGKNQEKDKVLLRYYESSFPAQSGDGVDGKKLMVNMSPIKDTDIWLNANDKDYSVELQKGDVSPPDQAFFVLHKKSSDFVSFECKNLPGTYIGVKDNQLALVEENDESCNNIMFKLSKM

mouse soluble ST2 (R&D) (from UniProt P14719 27-337)
NF-κB promoter activity (luciferase reporter, % increase) in neonatal rat cardiomyocytes: 42%
